Assay results taken from paper PMC8329861, “Structure of the unique tetrameric STENOFOLIA homeodomain bound with target promoter DNA”.
Changes are numbered by the printed parent chain.

How the values were obtained:
[1] = target: T1, STF-HD L107M/L110M/L130M (STF_3M-HD) (Medicago truncatula, UniProt G0ZGT3 85-190, L107M;L110M;L130M); test: X-ray crystallography (SAD); SeMet protein; PAGE EMSA: 10 mM Tris-HCl pH 7.5, 100 mM KCl, 1 mM DTT, 2.5% glycerol, 5 ng/ul poly(dI-dC), 0.05% NP-40, 0.05 ug/ul protein, 5 fmol/ul DNA, room temperature 30; conditions: protein: recombinant, tags: 6xHis-MBP removed by TEV, chain copies: 4, blunt
T1 sequence: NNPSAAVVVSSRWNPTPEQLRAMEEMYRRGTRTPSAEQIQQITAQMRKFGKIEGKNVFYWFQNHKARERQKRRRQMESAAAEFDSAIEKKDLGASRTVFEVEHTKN

STF-HD WT [2] = target: T2, STF-HD WT (Medicago truncatula, UniProt G0ZGT3 85-190); test: X-ray crystallography (2.1 A); PAGE EMSA: 10 mM Tris-HCl pH 7.5, 100 mM KCl, 1 mM DTT, 2.5% glycerol, 5 ng/ul poly(dI-dC), 0.05% NP-40, 0.05 ug/ul protein, 5 fmol/ul DNA, room temperature 30; conditions: protein: recombinant; tags: 6xHis-MBP removed by TEV; chain copies: 4; blunt
T2 sequence: T1 sequence with M23L, M26L, M46L

STF-HD WT [3] = target: T2, STF-HD WT; test: EMSA (agarose); stable complex at 1:4 DNA:protein; PAGE EMSA: 10 mM Tris-HCl pH 7.5, 100 mM KCl, 1 mM DTT, 2.5% glycerol, 5 ng/ul poly(dI-dC), 0.05% NP-40, 0.05 ug/ul protein, 5 fmol/ul DNA, room temperature 30; conditions: protein: recombinant; tags: 6xHis-MBP removed by TEV; chain copies: 4; label: 5' 6-FAM; blunt
STF-HD S169E = target: T3, STF-HD S169E (Medicago truncatula, UniProt G0ZGT3 85-190, S169E); test: fluorescence polarization; no significant decrease vs WT; value only in figure; PAGE EMSA: 10 mM Tris-HCl pH 7.5, 100 mM KCl, 1 mM DTT, 2.5% glycerol, 5 ng/ul poly(dI-dC), 0.05% NP-40, 0.05 ug/ul protein, 5 fmol/ul DNA, room temperature 30; conditions: protein: recombinant; tags: 6xHis-MBP removed by TEV; label: 5' 6-FAM; blunt
T3 sequence: T1 sequence with M23L, M26L, M46L, S85E

STF-HD F167A/I171A = target: T4, STF-HD F167A/I171A (Medicago truncatula, UniProt G0ZGT3 85-190, F167A;I171A); test: as above; conditions: protein: recombinant; tags: 6xHis-MBP removed by TEV; label: 5' 6-FAM; blunt
T4 sequence: T1 sequence with M23L, M26L, M46L, F83A, I87A

His-MBP-STF85-190 R96A = target: T5, His-MBP-STF85-190 R96A (Medicago truncatula, UniProt G0ZGT3 85-190, R96A); test: EMSA; PAGE EMSA: 10 mM Tris-HCl pH 7.5, 100 mM KCl, 1 mM DTT, 2.5% glycerol, 5 ng/ul poly(dI-dC), 0.05% NP-40, 0.05 ug/ul protein, 5 fmol/ul DNA, room temperature 30; conditions: protein: recombinant; tags: N-terminal 6xHis-MBP; label: 3' biotin; blunt
T5 sequence: T1 sequence with R12A, M23L, M26L, M46L

His-MBP-STF85-190 R113Q = target: T6, His-MBP-STF85-190 R113Q (Medicago truncatula, UniProt G0ZGT3 85-190, R113Q); test: EMSA; not affected; PAGE EMSA: 10 mM Tris-HCl pH 7.5, 100 mM KCl, 1 mM DTT, 2.5% glycerol, 5 ng/ul poly(dI-dC), 0.05% NP-40, 0.05 ug/ul protein, 5 fmol/ul DNA, room temperature 30; conditions: protein: recombinant; tags: N-terminal 6xHis-MBP; label: 3' biotin; blunt
T6 sequence: T1 sequence with M23L, M26L, R29Q, M46L

His-MBP-STF85-190 R151A = target: T7, His-MBP-STF85-190 R151A (Medicago truncatula, UniProt G0ZGT3 85-190, R151A); test: EMSA; binding retained; PAGE EMSA: 10 mM Tris-HCl pH 7.5, 100 mM KCl, 1 mM DTT, 2.5% glycerol, 5 ng/ul poly(dI-dC), 0.05% NP-40, 0.05 ug/ul protein, 5 fmol/ul DNA, room temperature 30; conditions: protein: recombinant; tags: N-terminal 6xHis-MBP; label: 3' biotin; blunt
T7 sequence: T1 sequence with M23L, M26L, M46L, R67A

B1: MtLOB39 22 bp (crystal) (dsDNA)
DNA 1: GCAAATTAATGATTTATTCAAG
DNA 2: CTTGAATAAATCATTAATTTGC
- binding result [1]: binds
- binding result (STF-HD WT [2]): binds

B2: MtAS2 22 bp FAM (dsDNA)
DNA 1: TGGATTTAATAATGAAGTGACA
DNA 2: TGTCACTTCATTATTAAATCCA
- binding result (STF-HD WT [3]): binds

B3: MtLOB39 22 bp FAM (dsDNA)
DNA 1: GCAAATTAATGATTTATTCAAG
DNA 2: CTTGAATAAATCATTAATTTGC
- binding result (STF-HD WT [3]): binds
- binding result (STF-HD S169E): binds
- binding result (STF-HD F167A/I171A): binds

B4: MtAS2 22 bp biotin (dsDNA)
DNA 1: TGGATTTAATAATGAAGTGACA
DNA 2: TGTCACTTCATTATTAAATCCA
- binding result (His-MBP-STF85-190 R96A): no binding
- binding result (His-MBP-STF85-190 R113Q): binds

B5: TAAT probe (TAAT motifs) (dsDNA)
DNA 1: GCAAATTAATTATTTATTAAAG
DNA 2: CTTTAATAAATAATTAATTTGC
- binding result (His-MBP-STF85-190 R151A): binds
